Laboratory results as given in publication PMC8939767 (2022).

Key:
Test in all cases: BLI
[1] = target: T1, HCoV-HKU1 soluble spike ectodomain protein (HCoV-HKU1, UniProt Q5MQD0 13-1300)
T1 chain: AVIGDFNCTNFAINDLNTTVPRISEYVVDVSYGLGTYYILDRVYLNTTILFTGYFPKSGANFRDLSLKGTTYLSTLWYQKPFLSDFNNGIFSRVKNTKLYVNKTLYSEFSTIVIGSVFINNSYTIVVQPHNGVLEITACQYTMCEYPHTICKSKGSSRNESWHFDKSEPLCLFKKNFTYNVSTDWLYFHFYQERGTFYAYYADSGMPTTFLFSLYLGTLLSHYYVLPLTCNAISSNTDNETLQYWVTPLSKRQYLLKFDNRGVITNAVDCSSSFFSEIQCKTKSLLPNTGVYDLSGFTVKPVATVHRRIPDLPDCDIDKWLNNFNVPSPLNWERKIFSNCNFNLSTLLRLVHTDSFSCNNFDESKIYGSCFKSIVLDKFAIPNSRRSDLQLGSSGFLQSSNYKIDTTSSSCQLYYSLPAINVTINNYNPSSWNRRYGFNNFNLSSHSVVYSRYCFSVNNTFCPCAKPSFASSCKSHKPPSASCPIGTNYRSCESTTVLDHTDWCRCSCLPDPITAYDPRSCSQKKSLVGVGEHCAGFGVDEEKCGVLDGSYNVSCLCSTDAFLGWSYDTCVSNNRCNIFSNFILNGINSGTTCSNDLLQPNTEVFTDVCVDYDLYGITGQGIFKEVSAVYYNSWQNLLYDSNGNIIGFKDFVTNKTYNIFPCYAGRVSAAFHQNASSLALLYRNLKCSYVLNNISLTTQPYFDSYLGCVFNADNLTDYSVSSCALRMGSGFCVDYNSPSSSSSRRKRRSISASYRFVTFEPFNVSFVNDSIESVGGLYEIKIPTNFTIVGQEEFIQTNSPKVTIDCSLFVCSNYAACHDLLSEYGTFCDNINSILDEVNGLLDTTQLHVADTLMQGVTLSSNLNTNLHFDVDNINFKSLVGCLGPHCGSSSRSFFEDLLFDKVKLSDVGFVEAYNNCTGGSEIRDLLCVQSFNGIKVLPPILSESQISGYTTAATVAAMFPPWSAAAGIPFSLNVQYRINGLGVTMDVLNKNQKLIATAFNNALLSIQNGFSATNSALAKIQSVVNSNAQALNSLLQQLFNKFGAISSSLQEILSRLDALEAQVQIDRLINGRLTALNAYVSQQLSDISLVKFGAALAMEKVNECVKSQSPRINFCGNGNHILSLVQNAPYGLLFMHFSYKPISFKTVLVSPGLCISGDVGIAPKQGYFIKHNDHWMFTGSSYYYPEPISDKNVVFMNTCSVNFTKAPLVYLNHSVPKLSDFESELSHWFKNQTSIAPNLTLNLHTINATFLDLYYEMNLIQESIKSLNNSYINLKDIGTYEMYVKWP

[2] = target: HCoV-OC43 soluble spike protein
[3] = target: SARS-CoV-2 soluble spike protein
[4] = target: SARS-CoV-1 soluble spike protein

B1: CC40.8 broadly neutralizing antibody (IgG) (antibody, V domains shown)
VH: EVQLLESGGGLVQPGGSLRLSCAASGFTFSSYVMTWARQAPGKGLEWVSAISGTGYTYYADSVKGRFTVSRDNSKNTLFLQMSSLRAEDTAVYYCAITMAPVVWGQGTTVTVSS
VL: SYELTQPPSVSVSPGQTARITCSGDALPKRYAYWYQQKSGQAPILVIYEDKKRPSGIPERLSGSKSGTVATLTISGAQVEDEADYYCYSTDSSGNHAVFGGGTQLTVL
[1]
  Kd: < 1 pM
[2]
  Kd: ~10000 pM
[3]
  Kd: < 1 pM
[4]
  Kd: < 1 pM
